Measurements taken from US5654179A, “Nucleic acid preparation methods” (HRI Research, Inc., priority 1994, dated 1997).

B1: rat transferrin: transferrin from rat (protein, UniProt P12346 20-698, looked up)
Serotransferrin: VPDKTVKWCAVSEHENTKCISFRDHMKTVLPADGPRLACVKKTSYQDCIKAISGGEADAITLDGGWVYDAGLTPNNLKPVAAEFYGSLEHPQTHYLAVAVVKKGTDFQLNQLQGKKSCHTGLGRSAGWIIPIGLLFCNLPEPRKPLEKAVASFFSGSCVPCADPVAFPQLCQLCPGCGCSPTQPFFGYVGAFKCLRDGGGDVAFVKHTTIFEVLPQKADRDQYELLCLDNTRKPVDQYEDCYLARIPSHAVVARNGDGKEDLIWEILKVAQEHFGKGKSKDFQLFGSPLGKDLLFKDSAFGLLRVPPRMDYRLYLGHSYVTAIRNQREGVCPEGSIDSAPVKWCALSHQERAKCDEWSVSSNGQIECESAESTEDCIDKIVNGEADAMSLDGGHAYIAGQCGLVPVMAENYDISSCTNPQSDVFPKGYYAVAVVKASDSSINWNNLKGKKSCHTGVDRTAGWNIPMGLLFSRINHCKFDEFFSQGCAPGYKKNSTLCDLCIGPAKCAPNNREGYNGYTGAFQCLVEKGDVAFVKHQTVLENTNGKNTAAWAKDLKQEDFQLLCPDGTKKPVTEFATCHLAQAPNHVVVSRKEKAARVSTVLTAQKDLFWKGDKDCTGNFCLFRSSTKDLLFRDDTKCLTKLPEGTTYEEYLGAEYLQAVGNIRKCSTSRLLEACTFHKS
B2: Bovine Transferrin: bovine transferrin (protein, UniProt Q29443 20-704, looked up)
Serotransferrin: DPERTVRWCTISTHEANKCASFRENVLRILESGPFVSCVKKTSHMDCIKAISNNEADAVTLDGGLVYEAGLKPNNLKPVVAEFHGTKDNPQTHYYAVAVVKKDTDFKLNELRGKKSCHTGLGRSAGWNIPMAKLYKELPDPQESIQRAAANFFSASCVPCADQSSFPKLCQLCAGKGTDKCACSNHEPYFGYSGAFKCLMEGAGDVAFVKHSTVFDNLPNPEDRKNYELLCGDNTRKSVDDYQECYLAMVPSHAVVARTVGGKEDVIWELLNHAQEHFGKDKPDNFQLFQSPHGKDLLFKDSADGFLKIPSKMDFELYLGYEYVTALQNLRESKPPDSSKDECMVKWCAIGHQERTKCDRWSGFSGGAIECETAENTEECIAKIMKGEADAMSLDGGYLYIAGKCGLVPVLAENYKTEGESCKNTPEKGYLAVAVVKTSDANINWNNLKDKKSCHTAVDRTAGWNIPMGLLYSKINNCKFDEFFSAGCAPGSPRNSSLCALCIGSEKGTGKECVPNSNERYYGYTGAFRCLVEKGDVAFVKDQTVIQNTDGNNNEAWAKNLKKENFEVLCKDGTRKPVTDAENCHLARGPNHAVVSRKDKATCVEKILNKQQDDFGKSVTDCTSNFCLFQSNSKDLLFRDDTKCLASIAKKTYDSYLGDDYVRAMTNLRQCSTSKLLEACTFHKP

Tests used:
Taq polymerase [1] = experiment: HIV PCR after inhibitor treatment of whole blood lysate; assay type: biochemical; conditions: with cofactor sodium bicarbonate
Protocol: The enzyme was inactivated by heating (95°-100° C., 10 minutes).

Taq polymerase [2] = experiment: Mode III whole blood, globin PCR (KM-29/HRI-12) with inhibitor treatment; assay type: biochemical; conditions: 250 μg bovine transferrin, 10 mM sodium bicarbonate; 25,000 to 0 cells; no product without treatment
Protocol: Generally, PCR was carried out using 175-200 μM dNTPS (deoxyribonucleoside 5'-triphosphates) and 0.5 to 1.0 μM primers. Five units/100 μl of Taq polymerase were used. PCR reactions were overlaid with 30-100 μl light mineral oil. A typical PCR cycle for HIV amplification using a Perkin-Elmer Cetus DNA Thermal Cycler (Part No. N8010150) was: denaturation at 95° C. for 30 seconds; annealing at 55° C. for 30 seconds; and extension at 72° C. for 1 minute. PCR cycles were normally carried out in this manner for 35 cycles followed by 7 minutes at 72° C.
In one case, amplification of globin sequences was performed using primer pair KM-29 (SEQ ID NO:10)and HRI-12 (SEQ ID NO:11) to give a 174 bp product within the human beta globin gene.
Whole blood samples were lysed with protease K (500 μg/ml, 55° C. for 1 hour). The enzyme was inactivated by heating (95°-100°C., 10 minutes). Aliquots corresponding to 25,000, 10,000, 5,000, 2,000, 1000, 500 and 0 cells were made. Bovine transferrin (250 μg) was added to each sample as well as the cofactor sodium bicarbonate (adjusted to 10 mM) and the reaction was incubated at room temperature for 30 minutes. Concentrated PCR reagents were then added to each sample to a final volume of 100 μl. […]

| Molecule | activity as interfering reagent (Taq polymerase [1]) | globin PCR product after inhibitor treatment (Taq polymerase [2]) |
| --- | --- | --- |
| B1 | does not work as an interfering reagent |  |
| B2 |  | decreasing product band corresponding to the decreasing amount of cells |
